Earlier results as cited in paper PMC5828769.

Experiments:
[1] = target: angiogenin (Homo sapiens) (UniProt P03950)
[2] = target: actin (AngBP) (Bos taurus) (UniProt P60712)

Sequence of UniProt P03950 (P03950 25-147): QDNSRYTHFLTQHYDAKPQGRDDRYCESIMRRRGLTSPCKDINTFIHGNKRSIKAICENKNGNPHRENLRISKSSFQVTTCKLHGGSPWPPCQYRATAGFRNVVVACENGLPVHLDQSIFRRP

Ki [1] [pM]	Kd [2] [pM]	Substance
< 0.001		PRI (ribonuclease inhibitor) (from UniProt P13489)
	500	angiogenin (from UniProt P10152)
